Source: the nanobody polyreactivity screen of Harvey et al. (2022)

Test: yeast display, Sf9 membrane polyspecificity reagent, FACS + sequencing; frameworks hold sequencing errors
Method in brief: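 Galactose-induced (36–48 hours) yeast carrying a synthetic nanobody display library were exposed to 10% biotinylated, detergent-solubilized Sf9 membrane reagent at 4 °C for 1 hour. FACS followed streptavidin microbead enrichment, using low and high (top ~1%) gates for expression (anti-HA) and reagent binding (streptavidin). Colony PCR, MiSeq 2 × 250 sequencing and CDR-length filtering followed. Labels for polyreactivity reflect the gate of origin.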

Row | Sequence | polyreactivity (PSR sort gate)
1 | QVQLVESGGGLVQAGGSLRLSCAASGRTFDYYAMGWYRQAPRKERELVAAISSGGSTNYADSVKGRFTISRDNAKNTVYLQMNSLKPEATAVYYCAVSGIDDVKYDYWGQGTQVTVSS | low polyreactivity
2 | QDQLVESGGGLVQAGGSLRLSCAASGSIFTYNAMGWYRPAPGKERELVAAINTSGSTNYADSVKGRFTISRDNAKNTVYLQKYSLKPEDTAVYYCAAGIVVTVYDYWRQGTQVTVSS | low polyreactivity
3 | QVQLVESGGGLVQAGGSLRLSCAASGSIFSIYAMGWYRQAPGKERELVAAIDSGTSTTYADSVKGRFTISRDNAKNTVYLQMNSLKPEDTAVYYCAAALYSDVAAVATYVYYWGQGTQVTVSS | low polyreactivity
4 | QVQLVESGGGLVQAGGSLRLSCAASGRTFDDNAMGWYRQAPGKERELVAAISSTGSTNYADSVKGRFTISRDNAKNTVYLQMNSLKPEDTAVYYCNTDRGHERAYYYWGQGTQVTVSS | low polyreactivity
5 | QVQLVESGGGLVQAGGSLRLSCAASGSIFGSYAMGWYRQATGNERELVAAIRSSASTYYADSVKGRFTISRDNAKNTVYLQMYSLKPEDTAVYYCAAKFTSYGRSRYYSWGQGTQVTVSS | high polyreactivity
6 | QVQLVESGGGLVQAGGSLRLSCAASGRIFDRYAMGWYRQAPGKEMELVAAISSDANTYYADSVKGRFTISRDNAKNTVYLQMNSLKPEDTAVYYCAKVVKGDHPYDYWGQGTQVTVSS | high polyreactivity
7 | QVQLGESGGGLVQAGGSLRLSCASSGRILNINSMGWYRQAPGKERELVAAITWRGGRTFYADSVKGRFTISRDYAKNKVYFEMNSLKPEDTAVYYCAASSNTWYPTGYYWGQGSQVTVSS | high polyreactivity
8 | QVQLVESGGGLVQAGGSLRLSCAASGSTFTSYAMGWYRQAPGKERELVASITRSGGRTYYADSVKGRFTISRDNAKNTVYLQMNSLKPEDTAVYYCARRYPGGYYWGQGTQVTVSS | high polyreactivity
9 | QVQLVESGGGLVQAGGSLRLSCAASGRIFYDYTMVWYRQAPGKERDLVATITSGGNTNYADSVKGRFTISRDNAKNTVYLPMNSLKPVDTAVYYCAPSYSAKRVKTGRVWYGYWGQGTQVTVSS | low polyreactivity
10 | QVQLVESGGGLVPAGGSLRLSCAASGYIFDYNAMGWYRQAPGKERELVAAITFRDGSTYADSVKGRFTISRDNAKNTVYLQMNSLKPEDTAVYYCNRRSQVHSHSKHDYWGQGTQVTVSS | low polyreactivity
11 | QVQLVESGGGLVQAGGSLRLSCAASGRIIYIYAMGWYRQAPGKERELVAAITASSGSTNYADSVKGRFTISRDNAKNTVYLQMNSLKPEDTAVYYCAAAPSRTLLRQSKYYYWGQGTQVTVSS | low polyreactivity
12 | QVQLVESGGGLVQAGGSLRLSCAASGRIFLQYAMGWYRQAPGKERELVAGISSRGGSTYYADSVKGRFTISRDNAKNTVYLQMNSLKPEDTAVYYCAAQTKRIRYVYKHYYWGQGTQVTVSS | high polyreactivity
13 | QVQLVESGGGLVQAGGSLRLSCAASGSTLRPYAMGWYRQAPGKERELVAAISKSGASTYYADSVKGRFTISRDNAQNTVYLQMNSLKPEDTAVYYCNAGRGTGETLYGYDYWGQGTQVTVSS | high polyreactivity
14 | QVHLVDSGGGLVQAGGSLRLSCAASGSTIRYYAMGWYRQAPGKEREMVAAITSSGTSTYYADSVKGRFTISRDNAKNTVYLQMNSLKPEDTAVYYCAAPPVYKWVSSRYDYWGQGTQVTVSS | low polyreactivity
15 | QVQLVESGGGLVQAGGSLRLSCAASGFIFRLYAMGWYRQAPGKERELVAAISRGGSTTYADSVKGRFTISRDNAKNTVYLQMNSLKPEDTAVYYCATEGDYVAYLYDYWGQGTQVTVSS | low polyreactivity
16 | QVQLVESGGGLVQAGGSLRLSCAASGIIFVEYAMGWYRQAPGKERELVARIRYSGGSTYYADSVKGRFTISRDNAKNTVYLQMNSLKPEDTAVYYCNALFPYIYDYWGQGTQVTVSS | low polyreactivity
17 | QVQLVESGGGIDQAGGSLRLSCAASGNIFDYYAMGWYRQAPGKEREFVAAISWSGARTYYADSVKGRFTISRDNAKNTVYLQMNRLKPEDTAVYYCAGGQSWRKNDYRYDYWGQGTQVTVSS | high polyreactivity
18 | QVQLVESGVGLVQAGGSLRLSCAASGFIFWLYAMGWYRQAPGKERELVAGITRGGGSTYYADSVKRRFTISRDNAKNTVYLQMNSLKPEDTAVYYCAADAWSSYLDRPFDYWGQGTQVTVSS | high polyreactivity
19 | QVQLEESGGGLVQAGGSLRLSCAASGFTFDGYAMGWYRPAPGKERELVAAITSSGGSTYYADSVKGRFTISRDNTKNTVYLQMNSLKPEDTAVYYCNAVYYYGYYYYWTEFNYWGQGTQVTVSS | high polyreactivity
20 | QVQLVESGGGLVQAGGSLRLSCAASGSNYYWYAMVWSRQAPGKEMELVADITTSDGRTYYADSVKGRFTISRDNAKNTVYFLMNSLKPEDTAVYYCAADPFSGYGFQYYRGLYYWGQGTQVSVSS | low polyreactivity
21 | QVQLVESGGGLVQAGGSLRLSCAASGSTFWANALGWYRQAPGKERELVAGITWNAGSTYYADSVKGRFTISRDNAKNTVYLQMNSLKPEDTGVYYCAAYYHFQGWGPGYNSWGQGTQVTVSS | low polyreactivity

Row | Sequence | polyreactivity (PSR sort gate)
22 | QVQLVESGGGLVQAGGSLRLSRAASGITFGFKAMGWYRQAPGKERELVAAITWSVGRTYYADSVKGRFTISRDNAKNTVYLQMNSLKPEDTAVYYCAKDFEAGDDYFAYDYWGQGTQVTVSS | low polyreactivity
23 | QVQLVESGGGLVHAGGRLRLSCAASGRIFYTYTMGWYSQAPGKERELVATITDGTRTNYADSVKGRFTISRDNAKITVYLQMTSLQPEDTAVYYCNAAGRWHDLYRINYDYWGQGTKVTVSS | low polyreactivity
24 | QVQLVESGGGLVQAGGSLRLSCAASGITFWYYAMGWYRQAPGKERELVAVISRGGSTYYADSVKGRFTISRDNAKNTVYLQMNSLKPEDTAVYYCAARQRWYTYTRQEYDYWGQGTQVTVSS | high polyreactivity
25 | QVQLEESGGGLVQAGGSLRLSCAASGSTFQRYAIGWYRQAPGKERELVAAISYRAGRRYYADSVKGRFTISRDNAKNTVYLQMNSLKPEDTAVYYCAAKNQGYQYDYWGQGTQVTVSS | high polyreactivity
26 | QVQLVESGGGLVQAGGSLRLSCAASGSIFRSYAMGWYRQAPGKEREFVAAISNGGRTSYADSVKGRFTISRDNAKYNVYLQMNSLKPEDTAVYDCNARYSRRAMGYWGQGTQVTVSS | high polyreactivity
27 | QVQLVESGGGLVQAGGSLRLSCAASARIFSQNAMGWYRQAPGKERELVAVISWSGVSTSYSDSVKGRFTISRDNAKNTVYLQMNSLKPEDTAVYYCAARRFYYYSRYPGYNSWGQGTLVTVSS | high polyreactivity
28 | QVQLVESGGGLVQAGGSLRLSCAASGSTIDVYTMGWYRQAPGKERELVAAISRGSSTYYADSVKGRFTISRDNAKYTVYVQMNSLKPEDTAVYYCNAVTSRKYRRYGYGYWGQGTQVTVSS | high polyreactivity
29 | QVQLVESGGGLVQAGGSLRLSCAASGRIFVPYVMGWYRQAPGKERELVASISDSDTSTYYADSVKGRFTISRDNAKNTVYLQMNSLKPEDSAVYYCNVDYWGQGTQVTVSS | low polyreactivity
30 | QVQLVESGGGIVQAGGSLRLSCAASGSIFRRNALGWYRQAPGKERELVAAISSIGSSTYYADSVKGRFTISRENAKNTVYFQMNSLKPEDTAVYYCAAVFYYATYSKKFEYWGQGTQVTVSS | high polyreactivity
31 | QVQLVDSGGGLVQAGGSLRLSCAASGFTFFRYAMGWYRQAPGKERELVAAITSGGGRTYYADSVKGRFTISRDNAKNTVYLQMNSLNPEDTAVYYCAARVYFSFITPIKYNYWGQGTQVTVSS | high polyreactivity
32 | QVQLVESGGGLVQAGGSLRLSCAASGITFYDYAMGWYRQEPGKERELVAAINSSGVRTYYADSVKGRFTISRDNAKNTVYLQMNSLKPEDTAVYYCAAVRRGPYISRSDMDYYWGQGTQVTVSS | high polyreactivity
33 | QVQLVESGGGLVLAGGSLRLSCAASGSILGTYAMGWYRQAPGKERELVARISRGGSTNYADSVKGRFTISRDNAKNTVYLQMNSLKPEDTAVYYCAKRLYLPESWRYYYWGQGTQVTVSS | high polyreactivity
34 | QVQLVESGGGLVQAGGSLRLSSAASGITFYVYAKGRYRQAPGKERELVAAISGSGGNTYYADSVKGRFTISRDNAKNTVYLQMNSLKPEDTPVYYFNADDHSPYYGDLDYWGQGTQVSVSS | low polyreactivity
35 | QGQLVESGGGLVQAGGSLRLSCAASGGTFSDNVMGWYRQAPGKERELVAANSRSGGSTYYADSVKGRNTISRDNAKNTLSLQMNSLKPEDTAVYYCNAIGSKRGAYKAAFNYWGQGTQVTVSS | high polyreactivity
36 | QFQLVESRGGLVQAGGSLRLSCAASGSIFGSNAMGLYRQAPAKERELVAANSGSGGSTNYADSVKGRLTLSRDIAQNTVYLHMNSLKPEDTAVYYCAVPSKATGSASTSYGIFDSWGQGTQVTVSS | low polyreactivity
37 | QVQLVESGGGLVQAGGSLRLSCAASGRTFRRYAMGWYRQAPGKERELVATITNAGSTYYADSVKGRFTISSDNAKNTVYLQMNSLKPEDTSVYYCAARVPYKSDYWGQGTQVTVSS | low polyreactivity
38 | QVQLVESGGGLVQAGGSLRLSCAASGFIFAGYALGWYRQAPGKERELVAAISSGGGSTYYADSVKGRFTISRDNAKNTGYLQMNSLKPEDTAVYYCAARRLYPPGYYYWGQGTQVTVSS | high polyreactivity
39 | QVQLVESGGRIVQAGGSLRLSCAASGSILNNYAMGWYRQAPGKERELVAAISSSGGTNYADSVKGRFTISRDNEKNTVFLQMNSLKPEDTAVYYCNADVLDGGYDYWGQGTQVTVSS | low polyreactivity
40 | QVQLVESGGGLVQAGGSLRLSCAASGSTQKYAMGWYRQAPGKERELVAAIRRTGGSTYYADSVKGRFTISRDNAKNTVYLQMNSLKPEDTAVYYCAADPYNYYVSGYDYWGQVTQVTVSS | low polyreactivity
41 | QVQLLESGGGLVQAGGSLRLSCAASGSTFSYNAMGWYIQAPGKERELVAAIDRSVSTNYADSVKGRFTISRDNAKNTVYLQMNSLKPEDTEVYYCNARHPTDDIVIYDYWGQGTQVTVSS | low polyreactivity
